Measured values taken from patent publication US20120058906A1 (published 2012).

How the values were obtained:
[1] = target: T1, Recombinant Human DLL4 (R&D Systems Cat#1506-D4/CF) (human, UniProt Q9NR61 27-524); assay: ECL (MSD multi-spot), antigen on plate, Fab 5 nM
T1 construct: Bought recombinant protein; also called delta-like protein 4

[2] = target: T2, rHuman IGF-1 sR (insulin-like growth factor-1 soluble receptor), CF (R&D Systems Cat#391-GR) (human, UniProt P08069 31-932); assay: ECL (MSD multi-spot), antigen on plate, Fab 5 nM
T2 construct: Bought soluble receptor; also called IGF-R1

[3] = target: T3, rHuman ErbB2/Fc Chimera, CF (R&D Systems Cat#1129-ER) (human, UniProt P04626 23-652); assay: ECL (MSD multi-spot), antigen on plate, Fab 5 nM
T3 construct: Bought Fc chimera; also called HER2/neu; not shown: Fc of the bought chimera

[4] = target: T4, rHuman P-Cadherin/Fc Chimera, CF (R&D Systems Cat#861-PC) (human, UniProt P22223 108-654); assay: ECL (MSD multi-spot), antigen on plate, Fab 5 nM
T4 construct: Bought Fc chimera; also called CDH3; not shown: Fc of the bought chimera

[5] = target: T5, rHuman EGF R/Fc Chimera, CF (R&D Systems Cat#344-ER) (human, UniProt P00533 25-645); assay: ECL (MSD multi-spot), antigen on plate, Fab 5 nM
T5 construct: Bought Fc chimera; also called ErbB-1; not shown: Fc of the bought chimera

[6] = target: T6, rHuman HGF R/c-MET/Fc Chimera, CF (R&D Systems Cat#358-MT/CF) (human, UniProt P08581 25-932); assay: ECL (MSD multi-spot), antigen on plate, Fab 5 nM
T6 construct: Bought Fc chimera; also called HGF R/Fc; not shown: Fc of the bought chimera

[7] = target: T7, rHuman CD44/Fc Chimera, CF (R&D Systems Cat#3660-CD) (human, UniProt P16070 21-220); assay: ECL (MSD multi-spot), antigen on plate, Fab 5 nM
T7 construct: Bought Fc chimera; not shown: Fc of the bought chimera

[8] = target: T8, rHuman Notch-1/Fc Chimera, CF (R&D Systems Cat#3647-TK) (human, UniProt P46531 19-526); assay: ECL (MSD Multi-Spot) binding assay, antigen spotted on plate; Fab 15 nM; blank spot 261;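 also: blank spot per well as comparator with Hit at signal to blank ratio of 4 or more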
T8 construct: Bought Fc chimera; Fc part of the bought chimera not given

[9] = target: T9, rHuman P-Cadherin/Fc Chimera, CF (R&D Systems Cat#861-PC) (human, UniProt P22223 108-654); assay: as above
T9 construct: Bought Fc chimera; also called CDH3; Fc part of the bought chimera not given

[10] = target: T10, rHuman CD44/Fc Chimera, CF (R&D Systems Cat#3660-CD) (human, UniProt P16070 21-220); assay: as above
T10 construct: Bought Fc chimera; Fc part of the bought chimera not given

[11] = target: T11, Recombinant Human DLL4 (R&D Systems Cat#1506-D4/CF) (human, UniProt Q9NR61 27-524); assay: as above
T11 construct: Bought recombinant protein; also called delta-like protein 4; rHuman DLL4

[12] = target: T12, rHuman Erythropoietin R/Fc Chimera, CF (R&D Systems Cat#963-ER) (human, UniProt P19235 25-250); assay: as above
T12 construct: Bought Fc chimera; also called EPO R/Fc; Epo R; Fc part of the bought chimera not given
T12 sequence: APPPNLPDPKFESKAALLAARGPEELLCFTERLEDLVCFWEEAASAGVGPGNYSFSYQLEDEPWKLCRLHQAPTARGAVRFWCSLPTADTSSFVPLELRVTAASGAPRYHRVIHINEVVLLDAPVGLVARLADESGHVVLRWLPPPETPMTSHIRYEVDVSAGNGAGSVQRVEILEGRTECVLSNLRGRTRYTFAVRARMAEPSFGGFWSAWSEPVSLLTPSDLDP

[13] = target: T13, rHuman EGF R/Fc Chimera, CF (R&D Systems Cat#344-ER) (human, UniProt P00533 25-645); assay: ECL (MSD multi-spot), antigen spotted on plate; Fab 1410 nM; blank spot 709;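 also: blank spot per well as comparator with Hit at signal to blank ratio of 4 or more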
T13 construct: Bought reagent; also called epidermal growth factor receptor; Fc part of the bought chimera not given

[14] = target: T14, rHuman IGF-1 sR (IGF-1 sR), CF (R&D Systems Cat#391-GR) (human, UniProt P08069 31-932); assay: as above
T14 construct: Bought soluble receptor; also called insulin-like growth factor-1 soluble receptor; IGF-R1

[15] = target: T15, rHuman P-Cadherin/Fc Chimera, CF (R&D Systems Cat#861-PC) (human, UniProt P22223 108-654); assay: as above
T15 construct: Bought reagent; also called CDH3; Fc part of the bought chimera not given

[16] = target: T16, rHuman CD44/Fc Chimera, CF (R&D Systems Cat#3660-CD) (human, UniProt P16070 21-220); assay: as above
T16 construct: Bought reagent; Fc part of the bought chimera not given

[17] = target: T17, Recombinant Human DLL4 (R&D Systems Cat#1506-D4/CF) (human, UniProt Q9NR61 27-524); assay: as above
T17 construct: Bought reagent; also called delta-like protein 4

[18] = target: T18, rHuman Notch-1/Fc Chimera, CF (R&D Systems Cat#3647-TK) (human, UniProt P46531 19-526); assay: as above
T18 construct: Bought reagent; Fc part of the bought chimera not given

B1: Fab VH1-46_IGHD6-6*01_IGHJ1*01_S102A_S103P_S104Y_H111Y & L6_IGKJ1*01 (Fab, V domains shown)
VH: QVQLVQSGAEVKKPGASVKVSCKASGYTFTSYYMHWVRQAPGQGLEWMGIINPSGGSTSYAQKFQGRVTMTRDTSTSTVYMELSSLRSEDTAVYYCAREEYAPYSAEYFQYWGQGTLVTVSS
VL: not shown
notes: Fab made in E. coli; The heavy chain also carries CH1 with Flag and His tags from Plasmid A, and the light chain carries kappa CL from Plasmid C
- ECL signal [1]: 73400 ECL signal
- ECL signal [2]: 3030 ECL signal
- ECL signal [3]: 2860 ECL signal
- ECL signal [4]: 4160 ECL signal
- ECL signal [5]: 2980 ECL signal
- ECL signal [6]: 3100 ECL signal
- ECL signal [7]: 2760 ECL signal

B2: Fab VH6-1_IGHD3-3*01_IGHJ4*01 & V4-3_IGLJ4*01 (Fab, V domains shown)
VH: QVQLQQSGPGLVKPSQTLSLTCAISGDSVSSNSAAWNWIRQSPSRGLEWLGRTYYRSKWYNDYAVSVKSRITINPDTSKNQFSLQLNSVTPEDTAVYYCAREYYDFWSGYYTDYFDYWGQGTLVTVSS
VL: QPVLTQPTSLSASPGASARLTCTLRSGINLGSYRIFWYQQKPESPPRYLLSYYSDSSKHQGSGVPSRFSGSKDASSNAGILVISGLQSEDEADYYCMIWHSSASFVFGGGTQLIIL
notes: Tested as a Fab made in E. coli; also called IGHV6-1*01
- ECL signal [8]: 508
- ECL signal [9]: 351
- ECL signal [10]: 454
- ECL signal [11]: 690
- ECL signal [12]: 397

B3: Fab VH1-46_IGHD3-10*01_IGHJ4*01 & B3_IGKJ1*01 (Fab, V domains shown)
VH: QVQLVQSGAEVKKPGASVKVSCKASGYTFTSYYMHWVRQAPGQGLEWMGIINPSGGSTSYAQKFQGRVTMTRDTSTSTVYMELSSLRSEDTAVYYCAREYYYGSGSYYNDYFDYWGQGTLVTVSS
VL: not shown
notes: also called IGHV1-46*01
- ECL signal [13]: 1070
- ECL signal [14]: 426
- ECL signal [15]: 1060
- ECL signal [16]: 885
- ECL signal [17]: 1260
- ECL signal [18]: 1030
